Assay results taken from publication PMC7737771, “In‐depth interrogation of protein thermal unfolding data with MoltenProt” (Protein Science : A Publication of the Protein Society, 2020).

B1: Δ91‐FATZ‐1 (domain or fragment, UniProt Q9NP98 92-299, looked up)
chain: PTVGGQLGTAGQGFSYSKSNGRGGSQAGGSGSAGQYGSDQQHHLGSGSGAGGTGGPAGQAGRGGAAGTAGVGETGSGDQAGGEGKHITVFKTYISPWERAMGVDPQQKMELGIDLLAYGAKAELPKYKSFNRTAMPYGGYEKASKRMTFQMPKFDLGPLLSEPLVLYNQNLSNRPSFNRTPIPWLSSGEPVDYNVDIGIPLDGETEEL
notes: FATZ-1 (calsarcin-2/myozenin-1) with a deletion of the 91 N-terminal residues; Detailed purification protocols are to be published elsewhere (Mlynek et al., in preparation); also called FATZ‐1 lacking the first 91 residues; calsarcin‐2
B2: α‐actinin‐2 rod domain (domain or fragment, UniProt P35609 274-746, looked up)
chain: AVNQENERLMEEYERLASELLEWIRRTIPWLENRTPEKTMQAMQKKLEDFRDYRRKHKPPKVQEKCQLEINFNTLQTKLRISNRPAFMPSEGKMVSDIAGAWQRLEQAEKGYEEWLLNEIRRLERLEHLAEKFRQKASTHETWAYGKEQILLQKDYESASLTEVRALLRKHEAFESDLAAHQDRVEQIAAIAQELNELDYHDAVNVNDRCQKICDQWDRLGTLTQKRREALERMEKLLETIDQLHLEFAKRAAPFNNWMEGAMEDLQDMFIVHSIEEIQSLITAHEQFKATLPEADGERQSIMAIQNEVEKVIQSYNIRISSSNPYSTVTMDELRTKWDKVKQLVPIRDQSLQEELARQHANERLRRQFAAQANAIGPWIQNKMEEIARSSIQITGALEDQMNQLKQYEHNIINYKNNIDKLEGDHQLIQEALVFDNKHTNYTMEHIRVGWELLLTTIARTINEVETQILTRD
notes: α-actinin-2, rod domain, residues 274-746; Detailed purification protocols are to be published elsewhere (Mlynek et al., in preparation); PDB 4D1E is the longer α-actinin-2 dimer, of which the rod domain is a stretch; also called rod domain of α‐actinin‐2

Key:
α‐actinin‐2 rod domain [1] = molecular target: B2; assay: cell-based or functional assay
α‐actinin‐2 rod domain [2] = molecular target: B2; assay: SEC-MALS; Superdex‐200 10/300 Increase; 20 mM Tris–HCl pH 7.5, 100 mM NaCl, 50 mM arginine, 50 mM glutamic acid, 0.5 mM PMSF, 1 mM EDTA, 1 mM β‐mercaptoethanol; 100 μl injected at 2-4 mg/ml; 20°C; 0.5 ml/min; conditions: both partners purified
[3] = molecular target: the molecule itself; assay: as above

| ΔGu°′ of the complex against ΔGu°′ of the rod domain alone, thermal unfolding (NanoDSF) (α‐actinin‐2 rod domain [1]) [fold] | stoichiometry N (α‐actinin‐2 rod domain [2]) | Binder | stoichiometry N [3] |
| --- | --- | --- | --- |
| ~2 | 2 Δ91‐FATZ‐1 molecules per rod domain dimer | B1 |  |
|  |  | B2 | 2 |
